Substitutions are numbered along the chain they refer to. Numbers in names are those of the source.
B1: h10A11 IGKV4-1/IGHV3-73 T31A (antibody, name in Kabat numbering, V domains shown)
VH: EVQLVESGGGLVQPGGSLKLSCAASGFAFNAYALYWVRQASGKGLEWVGRIRSKSNNYATYYADSVKDRFTISRDDSKNTAYLQMNSLKTEDTAVYYCTRARFYYSDYGYAMDYWGQGTLVTVSS
VL: DIVMTQSPDSLAVSLGERATINCRSSKSLLHSNGNTYLYWYQQKPGQPPKLLIYRMSNLASGVPDRFSGSGSGTDFTLTISSLQAEDVAVYYCMQHLEYPLTFGQGTKLEIKR
B2: h10A11 IGKV4-1/IGHV3-73 Y58F (antibody, name in Kabat numbering, V domains shown)
VH: B1 VH with A31T, Y61F
VL: B1 VL
B3: h10A11 IGKV4-1/IGHV3-73 Y55F (antibody, name in Kabat numbering, V domains shown)
VH: B1 VH with A31T, Y58F
VL: B1 VL
B4: h10A11 IGKV4-1/IGHV3-73 L34I (antibody, name in Kabat numbering, V domains shown)
VH: B1 VH with A31T, L34I
VL: B1 VL
B5: h10A11 IGKV4-1/IGHV3-73 R52K (antibody, name in Kabat numbering, V domains shown)
VH: B1 VH with A31T, R52K
VL: B1 VL
B6: h10A11 IGKV4-1/IGHV3-73 R50K (antibody, name in Kabat numbering, V domains shown)
VH: B1 VH with A31T, R50K
VL: B1 VL
B7: h10A11 IGKV4-1/IGHV3-73 K52bR (antibody, name in Kabat numbering, V domains shown)
VH: B1 VH with A31T, K54R
VL: B1 VL
B8: h10A11 IGKV4-1/IGHV3-73 Y32F (antibody, name in Kabat numbering, V domains shown)
VH: B1 VH with A31T, Y32F
VL: B1 VL
B9: h10A11 IGKV4-1/IGHV3-73 S52cT (antibody, name in Kabat numbering, V domains shown)
VH: B1 VH with A31T, S55T
VL: B1 VL
B10: h10A11 IGKV4-1/IGHV3-73 A60V (antibody, name in Kabat numbering, V domains shown)
VH: B1 VH with A31T, A63V
VL: B1 VL
B11: h10A11 IGKV4-1/IGHV3-73 Y100dF (antibody, name in Kabat numbering, V domains shown)
VH: B1 VH with A31T, Y110F
VL: B1 VL
B12: h10A11 IGKV4-1/IGHV3-73 Y102F (antibody, name in Kabat numbering, V domains shown)
VH: B1 VH with A31T, Y114F
VL: B1 VL
B13: h10A11 IGKV4-1/IGHV3-73 D101E (antibody, name in Kabat numbering, V domains shown)
VH: B1 VH with A31T, D113E
VL: B1 VL
B14: h10A11 IGKV4-1/IGHV3-73 G100cA (antibody, name in Kabat numbering, V domains shown)
VH: B1 VH with A31T, G109A
VL: B1 VL
B15: h10A11 IGKV4-1/IGHV3-73 F97L (antibody, name in Kabat numbering, V domains shown)
VH: B1 VH with A31T, F103L
VL: B1 VL
B16: h10A11 IGKV4-1/IGHV3-73 N53Q (antibody, name in Kabat numbering, V domains shown)
VH: B1 VH with A31T, N56Q
VL: B1 VL
B17: h10A11 IGKV4-1/IGHV3-73 M100fL (antibody, name in Kabat numbering, V domains shown)
VH: B1 VH with A31T, M112L
VL: B1 VL
B18: h10A11 IGKV4-1/IGHV3-73 Y35F (antibody, name in Kabat numbering, V domains shown)
VH: B1 VH with A31T, Y35F
VL: B1 VL
B19: h10A11 IGKV4-1/IGHV3-73 S62T (antibody, name in Kabat numbering, V domains shown)
VH: B1 VH with A31T, S65T
VL: B1 VL
B20: h10A11 IGKV4-1/IGHV3-73 T57S (antibody, name in Kabat numbering, V domains shown)
VH: B1 VH with A31T, T60S
VL: B1 VL
B21: h10A11 IGKV4-1/IGHV3-73 Y99F (antibody, name in Kabat numbering, V domains shown)
VH: B1 VH with A31T, Y105F
VL: B1 VL
B22: h10A11 IGKV4-1/IGHV3-73 Y98F (antibody, name in Kabat numbering, V domains shown)
VH: B1 VH with A31T, Y104F
VL: B1 VL
B23: h10A11 IGKV4-1/IGHV3-73 K64R (antibody, name in Kabat numbering, V domains shown)
VH: B1 VH with A31T, K67R
VL: B1 VL
B24: h10A11 IGKV4-1/IGHV3-73 A33V (antibody, name in Kabat numbering, V domains shown)
VH: B1 VH with A31T, A33V
VL: B1 VL
B25: h10A11 IGKV4-1/IGHV3-73 D61E (antibody, name in Kabat numbering, V domains shown)
VH: B1 VH with A31T, D64E
VL: B1 VL
B26: h10A11 IGKV4-1/IGHV3-73 D65E (antibody, name in Kabat numbering, V domains shown)
VH: B1 VH with A31T, D68E
VL: B1 VL
B27: h10A11 IGKV4-1/IGHV3-73 Y59F (antibody, name in Kabat numbering, V domains shown)
VH: B1 VH with A31T, Y62F
VL: B1 VL
B28: h10A11 IGKV4-1/IGHV3-73 A100eV (antibody, name in Kabat numbering, V domains shown)
VH: B1 VH with A31T, A111V
VL: B1 VL
B29: h10A11 IGKV4-1/IGHV3-73 V63L (antibody, name in Kabat numbering, V domains shown)
VH: B1 VH with A31T, V66L
VL: B1 VL
B30: h10A11 IGKV4-1/IGHV3-73 S100T (antibody, name in Kabat numbering, V domains shown)
VH: B1 VH with A31T, S106T
VL: B1 VL
B31: h10A11 IGKV4-1/IGHV3-73 A56V (antibody, name in Kabat numbering, V domains shown)
VH: B1 VH with A31T, A59V
VL: B1 VL
B32: h10A11 IGKV4-1/IGHV3-73 S52aT (antibody, name in Kabat numbering, V domains shown)
VH: B1 VH with A31T, S53T
VL: B1 VL
B33: h10A11 IGKV4-1/IGHV3-73 R96K (antibody, name in Kabat numbering, V domains shown)
VH: B1 VH with A31T, R102K
VL: B1 VL
B34: h10A11 IGKV4-1/IGHV3-73 Y100bF (antibody, name in Kabat numbering, V domains shown)
VH: B1 VH with A31T, Y108F
VL: B1 VL
B35: h10A11 IGKV4-1/IGHV3-73 I51L (antibody, name in Kabat numbering, V domains shown)
VH: B1 VH with A31T, I51L
VL: B1 VL
B36: h10A11 IGKV4-1/IGHV3-73 D100aE (antibody, name in Kabat numbering, V domains shown)
VH: B1 VH with A31T, D107E
VL: B1 VL

Biological target: human CCR8 (human) (UniProt P51685)
Assay: cell-based or functional assay

human CCR8 (human), sequence (P51685 whole entry): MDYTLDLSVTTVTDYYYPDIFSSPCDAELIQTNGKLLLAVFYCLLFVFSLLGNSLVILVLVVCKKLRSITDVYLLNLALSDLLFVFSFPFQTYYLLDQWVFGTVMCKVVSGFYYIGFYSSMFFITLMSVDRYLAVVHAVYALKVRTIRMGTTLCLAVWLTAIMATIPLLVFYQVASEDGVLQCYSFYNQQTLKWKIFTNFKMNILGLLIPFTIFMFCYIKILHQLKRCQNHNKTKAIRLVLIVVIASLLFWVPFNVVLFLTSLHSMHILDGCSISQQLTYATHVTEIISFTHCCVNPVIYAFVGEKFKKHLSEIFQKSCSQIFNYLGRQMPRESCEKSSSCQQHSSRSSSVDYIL

IC50 ratio (WT IC50/mutant IC50)	IC50 (n.d.: 10 nM or more)	Binder
0.17	–	B1
0.5	–	B2
0.47	–	B3
0.43	–	B4
–	> 10 nM	B5
0.12	–	B6
0.47	–	B7
0.44	–	B8
0.53	–	B9
0.67	–	B10
0.55	–	B11
0.99	–	B12
–	> 10 nM	B13
0.07	–	B14
–	> 10 nM	B15
0.03	–	B16
0.72	–	B17
–	> 10 nM	B18

IC50 ratio (WT IC50/mutant IC50)	IC50 (n.d.: 10 nM or more)	Binder
1.6	–	B19
0.49	–	B20
0.8	–	B21
0.07	–	B22
0.54	–	B23
–	> 10 nM	B24
0.25	–	B25
1.3	–	B26
0.03	–	B27
0.49	–	B28
0.56	–	B29
0.64	–	B30
0.55	–	B31
0.22	–	B32
–	> 10 nM	B33
0.75	–	B34
0.22	–	B35
0.3	–	B36

Source: patent US20220064312A1
